Laboratory results reported in the supplement of paper PMC9170038.

Legend:
[1] = test system: MS2 coat protein; assay: apparent KD of MS2 coat protein, switch OFF state (with FMN for OFF switches, without FMN for ON switches); designed switch direction (-1 OFF switch, 1 ON switch): -1; higher = weaker reporter binding; details: FMN input: 0 or 200 uM; Eterna round: R93 (includes R88 designs)
How it was run: (§1)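 Apparent KD per design is the median of normalised cluster binding-curve fits. Designed RNA switches transcribed on-chip from Illumina sequencing clusters were titrated with SNAP-549-labelled MS2 coat protein in twofold steps from 0.7 or 1.5 nM to 3 µM, with 0.8–1.5 h down to 10–20 min per step. Buffer: 100 mM Tris-HCl pH 7.5, 80 mM KCl, 4 mM MgCl2, without or with constant ligand.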

[2] = test system: MS2 coat protein; assay: apparent KD of MS2 coat protein, switch ON state; designed switch direction (-1 OFF switch, 1 ON switch): -1; higher = weaker reporter binding; details: FMN input: 0 or 200 uM; Eterna round: R93 (includes R88 designs)
How it was run: as §1

Sequence | apparent KD of MS2 coat protein [1] [nM] | apparent KD of MS2 coat protein [2] [nM]
AGGAGACAUGAGGAUCACCCAUGUUAGGAUAUGAACGAAAAUAAAUAAAAAUAAAAGUUCAGAAGGGACGAAAA [66%, Wbt, 8] | 44.7 | 43.3
AGGAUGUCAGGAUAUGCGUAAAGAAUAAAACAAAUAACAACGCAGAAGGGACAUGAGGAUCACCCAUGUUAAGA [May 45] | 86 | 42.3
AGGAUGUCAGGAUAUGUGUAAAGAAUAAAACAAAUAACAACACAGAAGGGACAUGAGGAUCACCCAUGUUACCC [May 38] | 17.7 | 17.1
AGGGAGUGAGGAUAUGCGAAAUAAAAAGAAGGAAAAAAAGAGCAGAAGGCACAUGAGGAUCACCCAUGUGAGAA [milkweed 11] | 15.7 | 22.6
AGUAGGCGAGGAUAUACAUGAGGAUCACCCAUGUGAAAGAAAAAAGUGAGAAAGAAAAGUAGAAGGCGCUGACA [Ex 3 mod of Eli's mod of Lego's 73%] | 204 | 60.4
AGUAGUACAGGAUAUACAUGAGGAUCACCCAUGUGAAAAUAAAGUGGCGUACCACAAAGUAGAAGGGUACUACA [Mat - Exclusion 3 - JL mod - D35] | 138 | 27.9
AGUCAGAGAGGAUAUACAAGGGAAAAAAAAGUUAGAUCCCUACAUGAGGAUCACCCAUGUAGAAGGCUCUGACA [Ex2 Design 152: Sub-opt 16] | 49.2 | 108
AGUGAGUCAGGAUAUGCGUGAAGAAUAAAAGAAAUAACAACGCAGAAGGGACAUGAGGAUCACCCAUGUACACA [May 56] | 20.7 | 23.5
AGUUGGCGAGGAUAUACAUGAGGAUCACCCAUGUGAAAUCGAGAAAAAAUAGGGAAAAGUAGAAGGCGCAGACA [Ruby 63] | 24.1 | 20.6
AGUUGGCGAGGAUAUACAUGAGGAUCACCCAUGUGAGAGUAAAAAGUGAGAAAGAAAAGUAGAAGGCGCUAACA [JL Lego Mod 19] | 352 | 48.8
AGUUGGCGAGGAUAUACAUGAGGAUCACCCAUGUGAUAGAAAAAAGUGAGAAAGAAAAGUAGAAGGCGCUGACA [Mat - Exclusion 3 - Lego mod - D92] | 254 | 69.9
AUAAAACAUGAGGAUCACCCAUGUGAGGAUAUAGGAAACAAACAAACAAACAAACAAACUAGAAGGCACAAUAA [Amethyst 10] | 16.7 | 13
AUAAAACAUGAGGAUCACCCAUGUGAGGAUAUGCGAAAAAAAAAAAGAAAAAAAAAAAGCAGAAGGCACAAUAA [Amethyst 43] | 34.9 | 32.8
AUAAACGGAGGAUAUACAUGAGGAUCACCCAUGUAAAAAAAAAAAAGUUCCUCAAAAAGUAGAAGGUCGAAUAA [JR_Exc003_Sub012] | 13 | 15.5
AUAAAGACAGGAUAUACAUGAGGAUCACCCAUGUAAAAAAAAAAAAGUUCCUCAAAAAGUAGAAGGGUCAAUAA [JR_Exc003_Sub014] | 119 | 28.4
AUAAAGUGAGGAUAUACAUGAGGAUCACCCAUGUAAGAAAUAAAAUAAAUAAAGGGAAGUAGAAGGCACAAAUA [Denovo 1] | 41.3 | 35.8
AUAAAUCGAGGAUAUACAUGAGGAUCACCCAUGUAAAUAAAUAAAUAAAACUCCACAAGUAGAAGGCGAAAUAA [JR_Exc003_Sub020] | 20.8 | 23.8
AUAAGAGCAGGAUAUACGUAUAUGAUGCCAGGACCGCGUCCACAUGAGGAUCACCCAUGUAGAAGGGCUUGAAA [Disoleve] | 19.2 | 35.7
AUAAUGAGAGGAUAUACAUGAGGAUCACCCAUGUAAUUAAAAAGGAGAGAAACAAUACGUAGAAGGCUCAUUUA [JR_Exc003+Sub601] | 50.6 | 21.6
AUAGUACAUGAGGAUCACCCAUGUCAGGAUAUCGGAUAUGACAUGAAAAACAUGUUAACGAGAAGGGACUAUAA [EX1 Malc#19] | 36.6 | 26.2
AUCUACCUAGGAUAUACAUGAGGAUCACCCAUGUACAGUUUCAACUAGGGAUACUCACGUAGAAGGAGGUAGAU [JR_Exc003_Sub1210] | 21.2 | 34.8
AUUAAGUGAGGAUAUGAGUGAACAACAAAACAAAUAACGACUCAGAAGGCACAUGAGGAUCACCCAUGUAUAAA [May 69] | 28.7 | 31.7
CAAAGGUGAGGAUAUACAGGAAUAUGACGAAAGUCAUAAAAACAUGAGGAUCACCCAUGUAGAAGGCACCACAA [E2 64% 3] | 57.3 | 37.4

Sequence | apparent KD of MS2 coat protein [1] [nM] | apparent KD of MS2 coat protein [2] [nM]
CACGUACAUGAGGAUCACCCAUGUUAGGAUAUGCCGAAAAAAAAAAAAAAAAAAAUCAGCAGAAGGAACGAAAC [Bilbo Confounded 19 - Jieux - Exclusion 1] | 36 | 40.2
CCAAACGGAGGAUAUACAAAUUAAGGAAAAAAACGCGAAAAACAUGAGGAUCACCCAUGUAGAAGGCCGAAAAA [Ex 2 #2] | 18.5 | 20.3
CCAAAGUGAGGAUAUACGCGAACAAAAAAAAAAAAGAAAGCGUAGAAGGCACAUGAGGAUCACCCAUGUCCAGG [Alfred 64% 1] | 99.3 | 41
CCCAUGUCAGGAUAUCAGUAGUAAAAAAAAAAAAUUACUACUGAGAAGGGACAUGAGGAUCACCCAUGUCAAAA [EX4 315: Super Stable 15] | 21 | 80.2
CCUAAACAUGAGGAUCACCCAUGUGAGGAUAUGAUGCGAAUAAAGAAAGAAGAAAGCAUCAGAAGGCACAUAGG | 283 | 41.1
CCUGUGUGAGGAUAUGGUGUAAAAAAAAAAAAAUAGCUCCUCCAGAAGGCACAUGAGGAUCACCCAUGUCGUGG [Jolly's Folly 18 - Jieux - Exclusion 4] | 65.8 | 32.9
CGCAAGUCAGGAUAUUCGACAGGUAAAUCAGUAGAUCAGAAGAAGAAGGGACAUGAGGAUCACCCAUGUAAGUA [JR_Exc004_Sub405] | 24.3 | 41.1
CUCAAGUUAGGAUAUCCAAGAAAAGAAGAGAAAGAAAAGAAGGAGAAGGAACAUGAGGAUCACCCAUGUAAGAA [EteRNA is fun!] | 38.5 | 32.8
CUCAUGUCAGGAUAUGUAGCAUGAUACGAAAGUAUCAUGCUACAGAAGGGACAUGAGGAUCACCCAUGUCCAAA [Ex4: 944] | 37.7 | 119
CUCAUGUGAGGAUAUGUACAGAAAAAAAUGGGUGAAACUGUACAGAAGGCACAUGAGGAUCACCCAUGUGCAAA [EX4 377: S S Pseudoknot 2] | 21.4 | 19.1
CUCUAGUAAGGAUAUGGAAGAAAAGAAAAGAAAGAAAAGAACCAGAAGGUACAUGAGGAUCACCCAUGUAAGAA [EteRNA is fun!] | 23.4 | 48.9
CUCUAGUGAGGAUAUACAAGAAAAGAAGAGAAAGAAAAGAAGUAGAAGGCACAUGAGGAUCACCCAUGUAAGAA [EteRNA is fun!] | 33.6 | 24.7
CUCUUGUCAGGAUAUGAAAGAAAAGAAGAGAAAGAAAAGAAUCAGAAGGGACAUGAGGAUCACCCAUGUAAGAA [EteRNA is fun!] | 77.9 | 43.6
GAAAAACAUGAGGAUCACCCAUGUAAGGAUAUGCUGAAAAAACACUGGAAACAGUGCAGCAGAAGGUACAAAAG [Mat - Exclusion 1 - Eli mod - D100] | 73.3 | 20.3
GAAAAACAUGAGGAUCACCCAUGUCAGGAUAUGUAGAAAAAGAAAAAAAGAAAAGAAAACAGAAGGGACAAAAG [Mat - Same state - Mayanna Mod - D105] | 38.5 | 32.6
GAAAAGAAAGGAUAUAAAACAGAGGAUAUACAUAAAUAAAAACAUGAGGAUCACCCAUGUAGAAGGCUGAAAAG [Meechl Ex2 R2 m2] | 20.5 | 33.2
GAAAAGUCAGGAUAUGCAGAAAAAAAAACGAAAAAAAAACUGCAGAAGGGACAUGAGGAUCACCCAUGUUAAAG [Mat - Exclusion 4 - Mayanna - D128] | 33.1 | 50.9
GAAAUACGAGGAUAUACAUGAGGAUCACCCAUGUCAAAAAAUGACUACACAAAAGAAAGUAGAAGGCGUAAAAG [Mat - Exclusion 3 - Mayanna mod - D128] | 38.4 | 28.6
GAAGAACAUGAGGAUCACCCAUGUCAGGAUAUGCACUACGGAAUAAUAAGUAAUGGAAGUAGAAGGGACAAGAA [Ex 1 May 53] | 26.4 | 26.2
GCUUGGGAAGGAUAUACAUGAGGAUCACCCAUGUGAGAGAAAAAAGUGAGAAAGAAAAGUAGAAGGUCCUGAGG [salish99-ex3-108] | 152 | 71.2
GGAAAGUGAGGAUAUGCAUAACAAAUACAAAGAGAAACAAAGCAGAAGGCACAUGAGGAUCACCCAUGUAAACA [Exclusion 4 Float] | 22.7 | 27.3
GGGAUGUCAGGAUAUGUGUAAAGAAUAAAACAAAUAACAACACAGAAGGGACAUGAGGAUCACCCAUGUUACCC [May 39] | 15.4 | 17
